These results are taken from article PMC9858708, “Genetic and Molecular Interactions between H^ΔCT, a Novel Allele of the Notch Antagonist Hairless, and the Histone Chaperone Asf1 in Drosophila melanogaster” (Genes, 2023).

Settings in all cases: both partners purified
For assay [1], the target named is T1, Asf1-HA-MBP (full-length Drosophila Asf1) (Drosophila melanogaster, UniProt Q9V464 1-218).
T1 construct: Anti-silencing factor 1 (Asf1), Drosophila melanogaster, full length; HA-tagged region derived by PCR from the pJG4-5 construct; also called Asf-HA; HA-tagged Asf1; source: E. coli UT580, purified (amylose beads); not shown: HA, N-terminal, kept
T1 sequence (looked up): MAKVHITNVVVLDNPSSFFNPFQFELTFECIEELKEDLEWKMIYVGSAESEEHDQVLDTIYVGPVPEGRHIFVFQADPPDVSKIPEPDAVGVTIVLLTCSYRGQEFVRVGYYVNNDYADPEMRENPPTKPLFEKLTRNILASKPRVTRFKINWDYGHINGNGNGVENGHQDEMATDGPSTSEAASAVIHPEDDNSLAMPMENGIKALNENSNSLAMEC
Put plainly: co-IP; Myc-trap: purified Asf1-HA-MBP or Su(H)-GST mixed 1:1 with NTCTmyc-MBP peptides, about 10 min at 4 °C, 150 mM NaCl, 50 mM Tris pH7.5, 0.1% SDS; Myc-tagged H peptides trapped on anti-Myc nanobody magnetic beads 1 h at 4 °C; Western blot with anti-Myc, anti-HA, anti-GST.

Assay [2] addresses T2, Asf1 (1–154) (D. melanogaster, UniProt Q9V464 1-154).
T2 construct: Anti-silencing factor 1 (Asf1), D. melanogaster, amino acids 1-154; modified pET-14p construct
T2 sequence (looked up): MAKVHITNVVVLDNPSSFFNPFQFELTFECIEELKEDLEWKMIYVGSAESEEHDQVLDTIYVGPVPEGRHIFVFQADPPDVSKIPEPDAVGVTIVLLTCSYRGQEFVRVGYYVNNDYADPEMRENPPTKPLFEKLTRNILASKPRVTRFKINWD
Description: ITC; MicroCal VP-ITC, 25 °C, 20 mM HEPES pH 7.5, 150 mM NaCl; typically 100 μM Hairless in the syringe and 10 μM Asf1 in the cell; one-site binding model.

Assay [3] deals with T2, Asf1 (1–154). The assay is described as above. This is another data set of the same source.
The target in assay [4] is T3, Su(H)-GST fusion protein (Su(H) codons 288–594) (Drosophila melanogaster, UniProt P28159 288-594).
T3 construct: also called GST Su(H); GST-tagged Su(H); source: E. coli UT580, purified (glutathione-sepharose 4B)
T3 sequence (P28159 288-594): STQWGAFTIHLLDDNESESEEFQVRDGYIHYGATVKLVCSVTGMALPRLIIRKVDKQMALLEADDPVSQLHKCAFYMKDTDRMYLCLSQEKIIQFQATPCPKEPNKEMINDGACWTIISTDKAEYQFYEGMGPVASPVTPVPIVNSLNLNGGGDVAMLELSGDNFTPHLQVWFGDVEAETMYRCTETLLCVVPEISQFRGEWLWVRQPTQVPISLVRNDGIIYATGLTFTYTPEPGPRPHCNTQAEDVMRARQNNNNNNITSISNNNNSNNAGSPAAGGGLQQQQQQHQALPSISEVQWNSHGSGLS
Put plainly: co-IP; Myc-trap: purified Asf1-HA-MBP or Su(H)-GST mixed 1:1 with NTCTmyc-MBP peptides, about 10 min at 4 °C, 150 mM NaCl, 50 mM Tris pH7.5, 0.1% SDS; Myc-tagged H peptides trapped on anti-Myc nanobody magnetic beads 1 h at 4 °C; Western blot with anti-Myc, anti-HA, anti-GST.

B1: Hairless 315–369 myc-MBP (domain or fragment, Drosophila melanogaster, UniProt Q02308 315-369, looked up)
chain: PWKQSRPRRGISKELSLFFHRPRNSTLGRAALRTAARKRRRPHEPLTTSEDQQPI
notes: Hairless (H), Drosophila melanogaster, residues 315-369; also called aa 315–369; source: E. coli UT580, purified (amylose beads); not shown: Myc, N-terminal, kept
On to B1, for which, in assay [1], the binding result is listed as “binds”.

B2: H (232–358) (domain or fragment, Drosophila melanogaster, UniProt Q02308 232-358, looked up)
chain: GGRLQFFKDGKFILELARSKDGDKSGWVSVTRKTFRPPSAATSATVTPTSAVTTAYPKNENSTSLSFSDDNSSIQSSPWQRDQPWKQSRPRRGISKELSLFFHRPRNSTLGRAALRTAARKRRRPHE
notes: Hairless (H), Drosophila, residues 232-358; His-SUMO fusion from a modified pET-28b+ vector; also called Hairless 232–358
Consider B2, for which, in assay [2], the Ka was 250000 M⁻¹, the Kd was 4200 nM and the dH was -8.6 kcal/mol. Besides, in assay [3], the “stoichiometry N” value came out at 1.

B3: NTCTmyc-MBP (Hairless Ser 212 - Ile 369) (domain or fragment, Drosophila melanogaster, UniProt Q02308 212-369, looked up)
chain: SFDMGRTPISTHGNNSWGGYGGRLQFFKDGKFILELARSKDGDKSGWVSVTRKTFRPPSAATSATVTPTSAVTTAYPKNENSTSLSFSDDNSSIQSSPWQRDQPWKQSRPRRGISKELSLFFHRPRNSTLGRAALRTAARKRRRPHEPLTTSEDQQPI
notes: Hairless (H), Drosophila melanogaster, NTCT region Ser 212 - Ile 369; source: E. coli UT580, purified (amylose beads); not shown: Myc, N-terminal, kept
B3: the binding result in assay [4] and in assay [1] was “binds” throughout.

B4: H (315–358) (domain or fragment, Drosophila melanogaster, UniProt Q02308 315-358, looked up)
chain: PWKQSRPRRGISKELSLFFHRPRNSTLGRAALRTAARKRRRPHE
notes: Hairless (H), Drosophila, residues 315-358; His-SUMO fusion from a modified pET-28b+ vector; also called Hairless 315–358
For B4, in assay [2], the Ka was 680000 M⁻¹, the Kd was 1700 nM and the dH is -8.7 kcal/mol.
